By Kd is commonly meant the equilibrium constant for the complex coming apart.

Where only a bound is given, the exact number is not on record here.

The target in experiment [1] is meHER2-CAR, orientation Lc-Hc28ζ (meditope-enabled trastuzumab Fab-CAR). Put plainly: flow cytometry of meHer2 (Lc-Hc28ζ) T cells pre-bound to meditope peptide and stained with protein L. Untransduced control, same quadrant: 0.63%.
Experiment [2] has the same target. Put plainly: flow cytometry of meHer2 (Lc-Hc28ζ) T cells pre-bound to meditope peptide and stained with protein L. Untransduced control, same quadrant: 7.23%. A general note: In flow cytometry, cells or beads pass a laser one at a time.
Experiment [3] addresses meHER2-CAR, orientation Hc28ζ-Lc (meditope-enabled trastuzumab Fab-CAR). Description: flow cytometry of meHer2 (Hc28 ζ-Lc) T cells pre-bound to meditope peptide and stained with protein L. Untransduced control, same quadrant: 0.63%.
The target is the same in experiment [4]. Description: flow cytometry of meHer2 (Hc28 ζ-Lc) T cells pre-bound to meditope peptide and stained with protein L. Untransduced control, same quadrant: 7.23%.
For experiment [5] the target is unchanged. Description: flow cytometry of lentivirally transduced primary human T cells stained with protein L, middle trace meHer2 (Hc28 ζ-Lc). Untransduced control on the sheet: 13.16% MFI:1418.
Experiment [6] addresses meHER2-CAR, orientation Lc-Hc28ζ (meditope-enabled trastuzumab Fab-CAR). Put plainly: flow cytometry of meHer2 (Lc-Hc28ζ) T cells pre-bound to meditope peptide and stained with protein L. Untransduced control, same quadrant: 0.50%.
Experiment [7] addresses meHER2-CAR, orientation Hc28ζ-Lc (meditope-enabled trastuzumab Fab-CAR). Put plainly: flow cytometry of meHer2 (Hc28 ζ-Lc) T cells pre-bound to meditope peptide and stained with protein L. Untransduced control, same quadrant: 0.50%.
The target of experiment [8] is meHER2-CAR, orientation Lc-Hc28ζ (meditope-enabled trastuzumab Fab-CAR). Put plainly: flow cytometry of lentivirally transduced primary human T cells stained with Meditope-AF647, top trace meHer2 (Lc-Hc28ζ). Untransduced control on the sheet: 1.83% MFI:1306.
Experiment [9] concerns the target meHER2-CAR, orientation Hc28ζ-Lc (meditope-enabled trastuzumab Fab-CAR). Put plainly: flow cytometry of lentivirally transduced primary human T cells stained with Meditope-AF647, middle trace meHer2 (Hc28 ζ-Lc). Untransduced control on the sheet: 1.83% MFI:1306.
The target in experiment [10] is Fab of the meditope-Fab interaction (not specified). Put plainly: estimated; method not stated.
The target of experiment [11] is original trastuzumab meFab. Put plainly: Kinexa experiments, 25° C. (data not shown).

As to protein L, the % cells Meditope+ Protein L+ (upper right quadrant) in experiment [1] came out at 43.1%; in experiment [3], 42.1%. Besides, the % cells Meditope- Protein L+ (lower right quadrant) stood at 16.1% in experiment [2] and 4.04% in experiment [4]. Further, the % positive cells (marker gate) in [5] worked out at 51.8%.

As for Meditope-AF647 (peptide), the % cells Meditope+ Protein L- (upper left quadrant) was 2.09% in [6] and 2.6% in experiment [7]. For the same substance, the % positive cells (marker gate) is 57.1% in [8] and 54.4% in experiment [9].

As for meditope-protein L fusion (MPL), the half-life of the complex in experiment [10] was more than 80 days. In [11], this substance registered a Kd of 0.014 nM and a fold over the affinity of the individual components of 87000 fold.
